According to article PMC12107181 (2025):

B1: AD-TCP10 [Arabidopsis] / BD-COP1 [Arabidopsis] (parent complex)
chain 1: MGLKGYSVGEGGGEIVEVQGGHIIRATGRKDRHSKVFTSKGPRDRRVRLSAHTAIQFYDVQDRLGYDRPSKAVDWLIKKAKTAIDKLELGETTTTTTRQEPVNTKPESPTLVFQRENNDQTQFVAANLDPEDAMKTFFPATTTTNGGGGTNINFQNYPHQDDNNMVSRTTTPPPNLSQDLGLSLHPFQGNNNTVVVPETNNFTTTHFDTFGRISGWNHHDLTMTSSSSSEHQQQEQEERSNGGFMVNHHPHHHHHQPSMMTLLNSQQQQVFLGGQQQQQQRGTLQSSLFPHSFRSWDHHQTTSDHHHHQNQASSMFASSSQYGSHGMMMMQGLSFPNTTRLLHGEEATQPNSSSSPPNSHL
chain 2: MEEISTDPVVPAVKPDPRTSSVGEGANRHENDDGGSGGSEIGAPDLDKDLLCPICMQIIKDAFLTACGHSFCYMCIITHLRNKSDCPCCSQHLTNNQLYPNFLLDKLLKKTSARHVSKTASPLDQFREALQRGCDVSIKEVDNLLTLLAERKRKMEQEEAERNMQILLDFLHCLRKQKVDELNEVQTDLQYIKEDINAVERHRIDLYRARDRYSVKLRMLGDDPSTRNAWPHEKNQIGFNSNSLSIRGGNFVGNYQNKKVEGKAQGSSHGLPKKDALSGSDSQSLNQSTVSMARKKRIHAQFNDLQECYLQKRRQLADQPNSKQENDKSVVRREGYSNGLADFQSVLTTFTRYSRLRVIAEIRHGDIFHSANIVSSIEFDRDDELFATAGVSRCIKVFDFSSVVNEPADMQCPIVEMSTRSKLSCLSWNKHEKNHIASSDYEGIVTVWDVTTRQSLMEYEEHEKRAWSVDFSRTEPSMLVSGSDDCKVKVWCTRQEASVINIDMKANICCVKYNPGSSNYIAVGSADHHIHYYDLRNISQPLHVFSGHKKAVSYVKFLSNNELASASTDSTLRLWDVKDNLPVRTFRGHTNEKNFVGLTVNSEYLACGSETNEVYVYHKEITRPVTSHRFGSPDMDDAEEEAGSYFISAVCWKSDSPTMLTANSQGTIKVLVLAA
B2: AD-TCP3 [Arabidopsis] / BD-COP1 [Arabidopsis] (parent complex)
chain 1: MAPDNDHFLDSPSPPLLEMRHHQSATENGGGCGEIVEVQGGHIVRSTGRKDRHSKVCTAKGPRDRRVRLSAPTAIQFYDVQDRLGFDRPSKAVDWLITKAKSAIDDLAQLPPWNPADTLRQHAAAAANAKPRKTKTLISPPPPQPEETEHHRIGEEEDNESSFLPASMDSDSIADTIKSFFPVASTQQSYHHQPPSRGNTQNQDLLRLSLQSFQNGPPFPNQTEPALFSGQSNNQLAFDSSTASWEQSHQSPEFGKIQRLVSWNNVGAAESAGSTGGFVFASPSSLHPVYSQSQLLSQRGPLQSINTPMIRAWFDPHHHHHHHQQSMTTDDLHHHHPYHIPPGIHQSAIPGIAFASSGEFSGFRIPARFQGEQEEHGGDNKPSSASSDSRH
chain 2: B1 chain 2
B3: AD-PAP2 [Arabidopsis] / BD-COP1 [Arabidopsis] (parent complex)
chain 1: MEGSSKGLRKGAWTAEEDSLLRLCIDKYGEGKWHQVPLRAGLNRCRKSCRLRWLNYLKPSIKRGRLSNDEVDLLLRLHKLLGNRWSLIAGRLPGRTANDVKNYWNTHLSKKHESSCCKSKMKKKNIISPPTTPVQKIGVFKPRPRSFSVNNGCSHLNGLPEVDLIPSCLGLKKNNVCENSITCNKDDEKDDFVNNLMNGDNMWLENLLGENQEADAIVPEATTAEHGATLAFDVEQLWSLFDGETVELD
chain 2: B1 chain 2

Variants of: B1
Assay: Y2H assay (β-galactosidase activity); parent: 0.92; read off a plot
Work on chain 1 MGLKGYSVGEGGGEIVEVQGGHIIRATGRKDRHSKVFTSKGPRDRRVRLSAHTAIQFYDVQDRLGYDRPSKAVDWLIKKAKTAIDKLELGETTTTTTRQEPVNTKPESPTLVFQRENNDQTQFVAANLDPEDAMKTFFPATTTTNGGGGTNINFQNYPHQDDNNMVSRTTTPPPNLSQDLGLSLHPFQGNNNTVVAAETNNFTTTHFDTFGRISGWNHHDLTMTSSSSSEHQQQEQEERSNGGFMVNHHPHHHHHQPSMMTLLNSQQQQVFLGGQQQQQQRGTLQSSLFPHSFRSWDHHQTTSDHHHHQNQASSMFASSSQYGSHGMMMMQGLSFPNTTRLLHGEEATQPNSSSSPPNSHL [chain 1 V196A, chain 1 P197A] yielded a response of ~1.1 Miller units.

Variants of: B2
Assay: Y2H assay (β-galactosidase activity); parent: 3; read off a plot
Variant chain 2 W467A has a response of ~0.86 Miller units.

Variants of: B2
Assay: Y2H assay (β-galactosidase activity); parent: 2.7; read off a plot
chain 2 F595A was tested, and the response was ~0.86 Miller units.

Variants of: B3
Assay: Y2H assay (β-galactosidase activity); parent: 15; read off a plot
chain 2 W467A gave a response of ~2.1 Miller units.

Variants of: B3
Assay: Y2H assay (β-galactosidase activity); parent: 21; read off a plot
chain 2 F595A was tested, and the response was ~3.6 Miller units.
